Measurements as given in patent US20120208232, “Cell-Free Synthesis of Active Reprogramming Transcription Factors” (published 2012).

Legend:
R9-Oct3/4 = R9-Oct3/4 (Homo sapiens, UniProt Q01860 Q01860:1-360); experiment: NoShift plate assay, 0.5 uM DNA; reduced by unlabelled consensus competitor; settings: protein: synthetic; tags: N-terminal CAT9-StrepTagII-Xa-R9-His6-G4S fusion, E. coli cell-free synthesis; label: biotin
Description: (§1) Assessment of the DNA Binding Activities of the Fusion Reprogramming Factors. The DNA-binding activities of the R9-Nanog, R9-Oct3/4, and R9-Sox2 fusion proteins were assayed by colorimetry utilizing the NoShift Transcription Factor Assay Kit (Novagen) according to the manufacturer's instructions. To assess sequence-specific binding activity, 1-2 μg of the R9-Nanog fusion protein, 2-10 μg of the R9-Oct3/4 fusion protein or 1-4 μg of the R9-Sox2 fusion protein were each incubated in […] with 0.5 μM of their respective biotinylated consensus dsDNA binding targets. […] Non-biotinylated competitor consensus dsDNA and scrambled dsDNA used to assess competitive binding were added at […]. As a positive control, recombinant human (rh) Nanog (Abcam) and rhSox (Peprotech) were used. HRP-conjugated anti-mouse immunoglobulin G was used as a secondary antibody to recognize the anti-Nanog (Abcam), anti-Oct3/4 (R&D Systems), and anti-Sox2 (R&D Systems) mouse monoclonal antibodies. All assays were performed in duplicate. Binding activity was measured via colorimetric absorbance at 450 nm on a Tecan multiwell spectrophotometer using 3,3,5,5-tetramethylbenzidine as the substrate.
(§2) The NoShift Assay (Novagen) was used to verify the DNA binding activities of R9-Nanog, R9-Sox2, and R9-Oct3/4. […]

rhSox2 = rhSox2 (Homo sapiens, UniProt P48431 P48431:1-317); experiment: NoShift plate assay, positive control; settings: tags: Peprotech; label: biotin
Description: as §1, §2

R9-Sox2 = R9-Sox2 (Homo sapiens, UniProt P48431 P48431:1-317); experiment: NoShift plate assay, 0.5 uM DNA; reduced by unlabelled consensus competitor; settings: protein: synthetic; tags: N-terminal CAT9-StrepTagII-Xa-R9-His6-G4S fusion, E. coli cell-free synthesis; label: biotin
Description: as §1, §2

rhNanog = rhNanog (Homo sapiens, UniProt Q9H9S0 Q9H9S0:1-305); experiment: NoShift plate assay, positive control; settings: tags: Abcam; label: biotin
Description: as §1, §2

Chain of R9-Sox2 (P48431 whole entry, the tested form may be a part, one chain of several): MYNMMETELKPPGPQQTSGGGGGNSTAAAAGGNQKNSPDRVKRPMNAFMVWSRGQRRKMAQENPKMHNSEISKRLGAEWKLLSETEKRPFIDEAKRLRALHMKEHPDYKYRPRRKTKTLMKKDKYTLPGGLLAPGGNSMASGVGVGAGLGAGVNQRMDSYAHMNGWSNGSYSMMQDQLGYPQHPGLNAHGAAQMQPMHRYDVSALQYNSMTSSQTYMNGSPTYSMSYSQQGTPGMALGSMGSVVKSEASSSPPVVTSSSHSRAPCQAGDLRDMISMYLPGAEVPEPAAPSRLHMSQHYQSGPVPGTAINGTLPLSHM
Chain of rhSox2 (P48431 whole entry, one chain of several): as the sequence (P48431 whole entry, the tested form may be a part, one chain of several) above
Chain of R9-Oct3/4 (Q01860 whole entry, the tested form may be a part, one chain of several): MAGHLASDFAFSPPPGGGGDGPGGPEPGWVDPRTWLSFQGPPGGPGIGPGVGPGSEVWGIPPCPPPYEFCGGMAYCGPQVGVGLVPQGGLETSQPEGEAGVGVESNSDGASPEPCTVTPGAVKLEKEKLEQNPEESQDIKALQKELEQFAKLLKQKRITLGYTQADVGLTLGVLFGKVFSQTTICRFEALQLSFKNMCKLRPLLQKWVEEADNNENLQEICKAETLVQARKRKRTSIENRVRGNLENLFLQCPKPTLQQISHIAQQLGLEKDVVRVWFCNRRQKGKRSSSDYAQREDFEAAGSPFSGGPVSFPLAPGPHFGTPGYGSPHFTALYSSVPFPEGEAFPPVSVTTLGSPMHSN
Chain of rhNanog (Q9H9S0 whole entry, one chain of several): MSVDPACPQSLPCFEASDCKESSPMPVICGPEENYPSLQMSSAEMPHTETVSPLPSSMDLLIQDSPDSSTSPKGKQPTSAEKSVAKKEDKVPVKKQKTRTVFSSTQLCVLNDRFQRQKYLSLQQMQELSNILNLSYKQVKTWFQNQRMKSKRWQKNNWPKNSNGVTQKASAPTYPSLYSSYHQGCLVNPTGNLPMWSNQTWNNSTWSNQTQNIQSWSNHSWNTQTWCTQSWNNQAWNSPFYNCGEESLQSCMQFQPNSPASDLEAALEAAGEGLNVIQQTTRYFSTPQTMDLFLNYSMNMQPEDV

B1: Oct3/4 consensus dsDNA (dsDNA)
DNA 1: GCAGAGAGATGCATGTGCCGT
DNA 2: ACGGCACATGCATCTCTCTGC
R9-Oct3/4
  binding result: binds

B2: Sox2 consensus dsDNA (dsDNA)
DNA 1: GCAGAGGACAAAGGTGCCGTG
DNA 2: CACGGCACCTTTGTCCTCTGC
rhSox2
  binding result: binds
R9-Sox2
  binding result: binds

B3: Nanog consensus dsDNA (dsDNA)
DNA 1: ACCTGTTAATGGGAGCGC
DNA 2: GCGCTCCCATTAACAGGT
rhNanog
  binding result: binds
